For this assay, the target named is Growth arrest-specific protein 6 (GAS6) (UniProt Q63772).
UniProt Q63772, sequence (Q63772 28-674): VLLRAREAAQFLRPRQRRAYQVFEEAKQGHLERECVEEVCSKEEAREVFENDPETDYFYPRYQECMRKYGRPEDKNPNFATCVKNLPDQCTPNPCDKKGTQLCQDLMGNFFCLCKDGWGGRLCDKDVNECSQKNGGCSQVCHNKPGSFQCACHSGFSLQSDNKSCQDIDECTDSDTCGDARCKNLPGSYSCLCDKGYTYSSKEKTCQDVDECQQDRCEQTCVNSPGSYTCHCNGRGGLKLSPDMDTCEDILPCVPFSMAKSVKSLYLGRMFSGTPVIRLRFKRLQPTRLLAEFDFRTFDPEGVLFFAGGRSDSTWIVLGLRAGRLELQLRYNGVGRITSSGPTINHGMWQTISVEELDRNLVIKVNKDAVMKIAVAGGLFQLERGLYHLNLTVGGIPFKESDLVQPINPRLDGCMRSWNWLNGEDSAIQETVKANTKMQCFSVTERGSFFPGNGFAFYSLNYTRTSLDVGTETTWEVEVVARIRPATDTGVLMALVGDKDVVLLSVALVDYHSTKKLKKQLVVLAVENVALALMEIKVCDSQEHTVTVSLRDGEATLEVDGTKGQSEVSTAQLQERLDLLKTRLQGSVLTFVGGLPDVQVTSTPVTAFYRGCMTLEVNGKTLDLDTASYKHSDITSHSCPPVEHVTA

“AXL-Fc protein fragment (soluble form of AXL) (Fc fusion)” yielded a proliferation of RSC96 cells (WST-1) treated with AXL-Fc, percent decrease after 24 h, 48 h and 72 h (31.3%, 35.1%, 43.1%) of 43.1 % decreased.

For the origin of these results see publication PMC5814221.
